The text below walks through data of PMC12381214, “Multi-state catch bond formed in the Izumo1:Juno complex that initiates human fertilization” (Nature Communications, 2025).

Common to all, as to details: both partners purified
The target in assay [1] is T1, human Juno ectodomain H177Q, infertility-associated variant (JunoH177Q-His10-SpyTag-LPETGG) (human, H177Q (stands in the printed letters), glycosylated (sites not given); SpyTag joined by an isopeptide bond to a SpyCatcher polyprotein).
T1 construct: Juno, human, ectodomain (ECD), UniProt A6ND01, natural variant H177Q found in patients; also called HBM-JunoH177Q-His10-SpyTag-LPETGG; source: Sf9 (ExpiSF) cells, baculovirus, secreted, purified (Ni resin, SEC); not shown: HBM secretion signal peptide, N-terminal, cleaved; His10, C-terminal, kept; SpyTag, C-terminal, kept; LPETGG sortase motif, C-terminal, kept
T1 sequence (chain, as listed by the source with the stated changes): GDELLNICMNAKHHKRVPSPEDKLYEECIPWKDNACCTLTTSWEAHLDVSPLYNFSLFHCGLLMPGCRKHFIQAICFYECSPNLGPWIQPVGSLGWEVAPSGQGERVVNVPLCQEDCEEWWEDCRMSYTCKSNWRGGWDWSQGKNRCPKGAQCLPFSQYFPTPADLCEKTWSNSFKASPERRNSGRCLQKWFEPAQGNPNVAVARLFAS
Nature of the assay: flow cytometry-based bead-binding assay; Juno held on 3.75 µm polystyrene beads through the ybbR AFM-handle; Izumo1 labelled with SpyCatcher-GFP, 5-fold dilution series of 7 dilutions from 100x the expected KD, 3 h, 0.1% tween 20 in TBS-G (20 mM Tris-HCl, 300 mM NaCl, 10% glycerol, pH 8.0); Hill equation fitted. (In flow cytometry, cells or beads pass a laser one at a time.)

The target of assay [2] is T2, human Juno ectodomain, wild type (Juno-His10-SpyTag-LPETGG) (human, glycosylated (sites not given); SpyTag joined by an isopeptide bond to a SpyCatcher polyprotein).
T2 construct: Juno, human, ectodomain (ECD), UniProt A6ND01; the stretch between the HBM signal peptide and His10 in the printed construct; the printed construct has a D between the signal's ...YIYA and G20 that may stay on the mature protein; also called Folr4; Izumo1r; source: Sf9 (ExpiSF) cells, baculovirus, secreted, purified (Ni resin, SEC); not shown: HBM secretion signal peptide, N-terminal, cleaved; …
T2 sequence (chain, as listed by the source): as the sequence (chain, as listed by the source with the stated changes) above, with Q158H counted along it
The assay is described as above.

Assay [3] has as its target T2, human Juno ectodomain, wild type …. Briefly: AFM single-molecule force spectroscopy (constant speed); Izumo1 on the cantilever and Juno on the cover glass, each covalently held by its C-terminus through a ddFLN4-ELP-ybbR handle; contact 0.2 s, retraction at 800, 1600, 3200, 6400 nm·s^−1; PBS pH 7.4.

B1: human Izumo1 ectodomain, wild type (Izumo1-His10-SpyTag-LPETGG) (domain or fragment)
chain: CVICDPSVVLALKSLEKDYLPGHLDAKHHKAMMERVENAVKDFQELSLNEDAYMGVVDEATLQKGSWSLLKDLKRITDSDVKGDLFVKELFWMLHLQKETFATYVARFQKEAYCPNKCGVMLQTLIWCKNCKKEVHACRKSYDCGERNVEVPQMEDMILDCELNWHQASEGLTDYSFYRVWGNNTETLVSKGKEATLTKPMVGPEDAGSYRCELGSVNSSPATIINFHVTVLP
modifications: glycosylated (sites not given); SpyTag joined by an isopeptide bond to a SpyCatcher polyprotein
notes: Izumo1, human, ectodomain (ECD), UniProt Q8IYV9; the stretch between the HEM signal peptide and His10 in the printed construct; also called HEM-Izumo1-His10-SpyTag-LPETGG; Izumo1-GFP; source: Sf9 (ExpiSF) cells, baculovirus, secreted, purified (Ni resin, SEC); not shown: HEM secretion signal peptide, N-terminal, cleaved; His10, C-terminal, kept; SpyTag, C-terminal, kept; LPETGG sortase motif, …
In general, Kd refers to the constant that tells how readily two partners part at equilibrium. A low value points to a tighter complex. For B1, the results for the Kd in assay [1] and in assay [2] were 64 nM and 45 nM, respectively.

B2: human Izumo1 ectodomain E71A (Izumo1E71A-His10-SpyTag-LPETGG) (domain or fragment)
chain: CVICDPSVVLALKSLEKDYLPGHLDAKHHKAMMERVENAVKDFQELSLNADAYMGVVDEATLQKGSWSLLKDLKRITDSDVKGDLFVKELFWMLHLQKETFATYVARFQKEAYCPNKCGVMLQTLIWCKNCKKEVHACRKSYDCGERNVEVPQMEDMILDCELNWHQASEGLTDYSFYRVWGNNTETLVSKGKEATLTKPMVGPEDAGSYRCELGSVNSSPATIINFHVTVLP
modifications: glycosylated (sites not given); SpyTag joined by an isopeptide bond to a SpyCatcher polyprotein
notes: Izumo1, human, ectodomain (ECD), UniProt Q8IYV9, with E71A; also called HEM-Izumo1E71A-His10-SpyTag-LPETGG; source: Sf9 (ExpiSF) cells, baculovirus, secreted, purified (Ni resin, SEC); not shown: HEM secretion signal peptide, N-terminal, cleaved; His10, C-terminal, kept; SpyTag, C-terminal, kept; LPETGG sortase motif, C-terminal, kept
For B2, the binding result in assay [3] is on record as “binds”.

B3: human Izumo1 ectodomain H157A (Izumo1H157A-His10-SpyTag-LPETGG) (domain or fragment)
chain: CVICDPSVVLALKSLEKDYLPGHLDAKHHKAMMERVENAVKDFQELSLNEDAYMGVVDEATLQKGSWSLLKDLKRITDSDVKGDLFVKELFWMLHLQKETFATYVARFQKEAYCPNKCGVMLQTLIWCKNCKKEVAACRKSYDCGERNVEVPQMEDMILDCELNWHQASEGLTDYSFYRVWGNNTETLVSKGKEATLTKPMVGPEDAGSYRCELGSVNSSPATIINFHVTVLP
modifications: glycosylated (sites not given); SpyTag joined by an isopeptide bond to a SpyCatcher polyprotein
notes: Izumo1, human, ectodomain (ECD), UniProt Q8IYV9, with H157A; also called HEM-Izumo1H157A-His10-SpyTag-LPETGG; source: Sf9 (ExpiSF) cells, baculovirus, secreted, purified (Ni resin, SEC); not shown: HEM secretion signal peptide, N-terminal, cleaved; His10, C-terminal, kept; SpyTag, C-terminal, kept; LPETGG sortase motif, C-terminal, kept
On to B3, for which the binding result in assay [3] is “binds”.

B4: human Izumo1 ectodomain R160A (Izumo1R160A-His10-SpyTag-LPETGG) (domain or fragment)
chain: CVICDPSVVLALKSLEKDYLPGHLDAKHHKAMMERVENAVKDFQELSLNEDAYMGVVDEATLQKGSWSLLKDLKRITDSDVKGDLFVKELFWMLHLQKETFATYVARFQKEAYCPNKCGVMLQTLIWCKNCKKEVHACAKSYDCGERNVEVPQMEDMILDCELNWHQASEGLTDYSFYRVWGNNTETLVSKGKEATLTKPMVGPEDAGSYRCELGSVNSSPATIINFHVTVLP
modifications: glycosylated (sites not given); SpyTag joined by an isopeptide bond to a SpyCatcher polyprotein
notes: Izumo1, human, ectodomain (ECD), UniProt Q8IYV9, with R160A; also called HEM-Izumo1R160A-His10-SpyTag-LPETGG; source: Sf9 (ExpiSF) cells, baculovirus, secreted, purified (Ni resin, SEC); not shown: HEM secretion signal peptide, N-terminal, cleaved; His10, C-terminal, kept; SpyTag, C-terminal, kept; LPETGG sortase motif, C-terminal, kept
On to B4, for which the binding result in assay [3] is “binds”.

B5: human Izumo1 ectodomain K150A (Izumo1K150A-His10-SpyTag-LPETGG) (domain or fragment)
chain: CVICDPSVVLALKSLEKDYLPGHLDAKHHKAMMERVENAVKDFQELSLNEDAYMGVVDEATLQKGSWSLLKDLKRITDSDVKGDLFVKELFWMLHLQKETFATYVARFQKEAYCPNKCGVMLQTLIWCANCKKEVHACRKSYDCGERNVEVPQMEDMILDCELNWHQASEGLTDYSFYRVWGNNTETLVSKGKEATLTKPMVGPEDAGSYRCELGSVNSSPATIINFHVTVLP
modifications: glycosylated (sites not given); SpyTag joined by an isopeptide bond to a SpyCatcher polyprotein
notes: Izumo1, human, ectodomain (ECD), UniProt Q8IYV9, with K150A; also called HEM-Izumo1K150A-His10-SpyTag-LPETGG; source: Sf9 (ExpiSF) cells, baculovirus, secreted, purified (Ni resin, SEC); not shown: HEM secretion signal peptide, N-terminal, cleaved; His10, C-terminal, kept; SpyTag, C-terminal, kept; LPETGG sortase motif, C-terminal, kept
In assay [2], B5 returned an equilibrium dissociation constant (Kd) of 110 nM. This lies in the sub-micromolar range.
